Results taken from US20190016816A1 (APTEVO RESEARCH AND DEVELOPMENT, published 2019).
One block for each binder: values may come before it.

What was measured:
human 5T4 on cells [1] = target: T1, human 5T4 on cells (human, UniProt Q13641 32-420); assay: cell-based or functional assay
T1 sequence: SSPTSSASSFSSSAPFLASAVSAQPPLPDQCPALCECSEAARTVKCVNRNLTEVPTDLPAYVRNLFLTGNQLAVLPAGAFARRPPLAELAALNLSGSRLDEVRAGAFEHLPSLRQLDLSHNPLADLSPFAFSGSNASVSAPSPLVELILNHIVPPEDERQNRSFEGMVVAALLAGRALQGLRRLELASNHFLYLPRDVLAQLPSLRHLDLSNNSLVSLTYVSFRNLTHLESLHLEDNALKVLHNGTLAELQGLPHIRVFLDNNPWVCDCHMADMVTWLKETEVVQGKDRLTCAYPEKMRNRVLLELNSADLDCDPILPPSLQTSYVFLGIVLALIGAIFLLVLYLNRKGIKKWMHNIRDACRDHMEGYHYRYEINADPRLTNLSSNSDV

FcγRIIIb (CD16b) = target: T2, FcγRIIIb (CD16b) (UniProt O75015 17-200, limits assumed); assay: flow cytometry, CHO cells stably expressing CD16b, fluorescent anti-human IgG secondary, MFI (mean)
T2 construct: whole, on cells
T2 sequence (O75015 17-200 limits assumed): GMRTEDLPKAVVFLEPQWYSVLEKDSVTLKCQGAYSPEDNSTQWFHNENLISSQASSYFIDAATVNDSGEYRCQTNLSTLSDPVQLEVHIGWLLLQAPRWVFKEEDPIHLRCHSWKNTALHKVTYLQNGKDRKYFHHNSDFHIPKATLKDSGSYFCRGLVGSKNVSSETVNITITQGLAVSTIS
Text: ALG.APV-210 contains mutations introduced to prevent interaction with Fcγ receptors (FcγR) that could lead to FcγR-mediated T-cell activation or ADCC, ADCP, CDC etc. Binding of ALG.APV-210 was therefore tested on CHO cell transfectants stably expressing the following FcγR: FcγRI (CD64), FcγRIIa (CD32a His131), FcγRIIb (CD32b), FcγRIIIa (CD16a Val158 and CD16a Phe158), and FcγRIIIb (CD16b). Untransfected CHO cells were used as negative control. A control human IgG1 molecule was used as a positive control. Different concentrations of ALG.APV-210 or control IgG1 were incubated with the FcγR-expressing cell lines, washed, and labeled with a secondary anti-human IgG reagent. Binding of ALG.APV-210 and the control IgG1 was detected by flow cytometry.

human CD137 on cells = target: T3, human CD137 on cells (human, UniProt Q07011 24-255); assay: flow cytometry, percentage of CD8 T cells (gated from CD3-stimulated human PBMC) bound by the biotinylated antibody, exp 1, n=3 donors
T3 construct: also called 4-1BB; TNFRSF9 (CHO-K1/human CD137 cells)
T3 sequence (Q07011 24-255 limits assumed): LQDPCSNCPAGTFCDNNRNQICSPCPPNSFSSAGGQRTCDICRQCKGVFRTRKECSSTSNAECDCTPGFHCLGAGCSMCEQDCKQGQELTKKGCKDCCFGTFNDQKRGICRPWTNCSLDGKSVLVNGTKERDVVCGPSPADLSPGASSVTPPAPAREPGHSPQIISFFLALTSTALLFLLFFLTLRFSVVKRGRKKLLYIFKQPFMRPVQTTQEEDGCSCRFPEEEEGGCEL
Protocol: Following 48 h of incubation with or without CD3, human and cynomolgus PBMC were harvested, pooled, recounted and diluted in FACS buffer (PBS+0.5% BSA, 0.05% NaN₃) to a concentration of 5×10⁶ cells/mL. 50 μL (0.25×10⁶ cells) of cell solution was added to a 96-well FACS staining plate (Falcon #351190). Following 10 min of Fc-blocking in RT using Beriglobin (hIgG, 200 μg/mL), cells were washed in FACS buffer and then incubated for 1 h in 4° C. with 100 μL of the biotinylated ALG.APV-210 or negative control. The antibodies were added in a serial dilution starting either at 5 μg/mL titrating down in a 12 step ⅓ dilution down to […] (exp 1) or 1 μg/mL titrating down in a 12 step ½ dilution down to 0.0005 μg/mL (exp 2). […] Cells were analysed for ALG.APV-210 binding using flow cytometry by gating on viable, single cells expressing CD3 and CD8. MFI values (FMO subtracted) from 2 independent experiments as well as normalized pooled data from 2 experiments and EC₅₀-values were determined and plotted using GraphPad Prism 7, non-linear regression log (agonist) vs. normalized response—variable slope, n=6 donors/group.

human 5T4 on cells [2] = target: T1, human 5T4 on cells; assay: flow cytometry, CT26 cells transfected with human 5T4 (low clone), biotinylated ALG.APV-210 + streptavidin-PE, 1 of 2 experiments
Protocol: (§1) Prior to the FACS staining, all cell lines were characterized for their 5T4 expression levels using a receptor density kit (Quantum Simply Cellular, anti-human IgG, Bangs Laboratories, Inc). Adherent cell lines were cultured according to their supplier's instructions and were harvested from their cell culture flasks using Trypsin/EDTA, counted in R10 medium in a Burker chamber, and diluted in FACS buffer (PBS+0.5% BSA, 0.05% NaN₃) to a concentration of 4×10⁶ cells/mL. 50 μL (0.20×10⁶) of cell solution was added to a 96-well FACS staining plate (Falcon #351190). Cells were incubated for 20 min in 4° C. with 50 μL of the biotinylated ALG.APV-210 (2× final concentration). The antibodies were added in a serial dilution starting at 20 μg/mL titrating down in a 12 step ½ dilution down to 0.010 μg/mL. […] Cells were analysed for ALG.APV-210 binding using flow cytometry (FACSVerse) by gating on single cells. MFI values (secondary antibody only subtracted) from 1 out of 2 independent experiments, as well as normalized data and EC₅₀-values of pooled data from 2 experiments were determined and plotted using GraphPad Prism 7, non-linear regression log (agonist) vs. normalized response—variable slope.
The binding (EC₅₀) of the biotinylated ALG.APV-210 to 5T4 when expressed on cells, either at endogenous levels on human tumor cells or on cells transfected to express 5T4 was assessed. […]

human 5T4 on cells [3] = target: T1, human 5T4 on cells; assay: flow cytometry, SKOV-3 cells, streptavidin-PE, normalized MFI of 2 pooled experiments
Protocol: as §1, with “μg/mL. Following 2× washing with FACS buffer, cells were incubated for 30 min in 4° C. with 100 μL of a secondary antibody (streptavidin-PE, BD #554061, diluted 1/500).” for “μg/mL.”

- maximal IFNγ release with CT26-h5T4^low cells relative to CT26-h5T4^high cells (human 5T4 on cells [1]): 82%
- maximal IFNγ release with CT26-wt cells (no 5T4) relative to CT26-h5T4^high cells (human 5T4 on cells [1]): 7%
- binding result (FcγRIIIb (CD16b)): no binding (tested: 1000 nM)
B1: ALG.APV-210 (bispecific antibody)
chain: EVQLLESGGGLVQPGGSLRLSCAASGFTFSHGSMYWVRQAPGKGLEWVSSISSGSGSTYYADSVKGRFTISHDNSKNTLYLQMNSLRAEDTAVYYCARSSYYGSYYSIDYWGQGTLVTVSSGGGGSGGGGSGGGGSGGGGSDIQMTQSPSSLSASVGDRVTITCRASQSISSYLNWYQQKPGKAPKLLIYAASSLQSGVPSRFSGSGSGTDFTLTISSLQPEDFATYYCQQYYDNLPTFGQGTKLEIKEPKSSDKTHTCPPCPAPEAAGAPSVFLFPPKPKDTLMISRTPEVTCVVVDVSHEDPEVKFNWYVDGVEVHNAKTKPREEQYNSTYRVVSVLTVLHQDWLNGKEYKCAVSNKALPAPIEKTISKAKGQPREPQVYTLPPSRDELTKNQVSLTCLVKGFYPSDIAVEWESNGQPENNYKTTPPVLDSDGSFFLYSKLTVDKSRWQQGNVFSCSVMHEALHNHYTQKSLSLSPGSGGGGSGGGGSGGGGSPSEVQLLESGGGLVQPGGSLRLSCAASGFTFSSYAMSWVRQAPGKCLEWVSAISGSGGSTYYADSVKGRFTISRDNSKNTLYLQMNSLRAEDTAVYYCARYYGGYYSAWMDYWGQGTLVTVSSGGGGSGGGGSGGGGSGGGGSDIQMTQSPSSLSASVGDRVTITCRASQSISSFLNWYQQKPGKAPKLLIYAASSLQSGVPSRFSGSGSGTDFTLTISSLQPEDSATYYCQQTYGYLHTFGCGTKLEIKR
notes: Optimized ADAPTIR scFv-Fc-scFv homodimer with stabilizing disulfide in the 1210 scFv; also called 5T4-CD137 bispecific antibody

B2: biotinylated ALG.APV-210 (bispecific antibody)
chain: B1 chain
notes: also called ALG.APV-210 (biotinylated for FACS detection)
- EC50 (read off the curve) (human CD137 on cells): ~0.02 nM
- EC50 (read off the curve) (human 5T4 on cells [2]): ~10 nM
- EC50 (human 5T4 on cells [3]): 15 nM
